Results as given in paper PMC3686096 (Journal of the American Chemical Society, 2013).

Test: Control: unseeded Aβ1–40 solution checked for fibrils by TEM or AFM
Format: physicochemical
Settings: unseeded 50 µM Aβ1–40 solution, 30 min incubation

With “Aβ1–40: 40-residue β-amyloid peptide, made by solid-phase synthesis; also literature fibrils of unspecified polymorph” the “fibril formation in unseeded solution” value was “no fibrils were observed”.
